Assay results as given in US20130259873A1.

How the values were obtained:
[1] = target: high molecular weight melanoma associated antigen (HMW-MAA), also known as CSPG4 (human) (UniProt Q6UVK1); assay: flow cytometry, melanoma cell line 677 (BRAF V600E), PE-conjugated anti-mouse IgG
[2] = target: high molecular weight melanoma associated antigen (HMW-MAA), also known as CSPG4 (human) (UniProt Q6UVK1); assay: flow cytometry, melanoma cell line SK-MEL-5 (BRAF V600E), PE-conjugated anti-mouse IgG
[3] = target: high molecular weight melanoma associated antigen (HMW-MAA), also known as CSPG4 (human) (UniProt Q6UVK1); assay: flow cytometry, melanoma cell line 526 (BRAF V600E), PE-conjugated anti-mouse IgG
[4] = target: high molecular weight melanoma associated antigen (HMW-MAA), also known as CSPG4 (human) (UniProt Q6UVK1); assay: flow cytometry, melanoma cell line 1287 (BRAF V600E), PE-conjugated anti-mouse IgG
[5] = target: high molecular weight melanoma associated antigen (HMW-MAA), also known as CSPG4 (human) (UniProt Q6UVK1); assay: flow cytometry, melanoma cell line SK-MEL-28 (BRAF V600E), PE-conjugated anti-mouse IgG
[6] = target: high molecular weight melanoma associated antigen (HMW-MAA), also known as CSPG4 (human) (UniProt Q6UVK1); assay: flow cytometry, melanoma cell line UACC-257 (BRAF V600E), PE-conjugated anti-mouse IgG
[7] = target: high molecular weight melanoma associated antigen (HMW-MAA), also known as CSPG4 (human) (UniProt Q6UVK1); assay: flow cytometry, melanoma cell line M21 (BRAF V600E), PE-conjugated anti-mouse IgG
[8] = target: high molecular weight melanoma associated antigen (HMW-MAA), also known as CSPG4 (human) (UniProt Q6UVK1); assay: flow cytometry, melanoma cell line 1495 (BRAF V600E), PE-conjugated anti-mouse IgG
[9] = target: high molecular weight melanoma associated antigen (HMW-MAA), also known as CSPG4 (human) (UniProt Q6UVK1); assay: flow cytometry, melanoma cell line MV3 (BRAF wild type), PE-conjugated anti-mouse IgG
[10] = target: high molecular weight melanoma associated antigen (HMW-MAA), also known as CSPG4 (human) (UniProt Q6UVK1); assay: flow cytometry, melanoma cell line Colo38 (BRAF V600E), PE-conjugated anti-mouse IgG
[11] = target: high molecular weight melanoma associated antigen (HMW-MAA), also known as CSPG4 (human) (UniProt Q6UVK1); assay: flow cytometry, melanoma cell line SK-MEL-37 (BRAF V600E), PE-conjugated anti-mouse IgG
[12] = target: high molecular weight melanoma associated antigen (HMW-MAA), also known as CSPG4 (human) (UniProt Q6UVK1); assay: flow cytometry, melanoma cell line SK-MEL-19 (BRAF V600E), PE-conjugated anti-mouse IgG
[13] = target: high molecular weight melanoma associated antigen (HMW-MAA), also known as CSPG4 (human) (UniProt Q6UVK1); assay: flow cytometry, melanoma cell line Mel624 (BRAF V600E), PE-conjugated anti-mouse IgG
[14] = target: high molecular weight melanoma associated antigen (HMW-MAA), also known as CSPG4 (human) (UniProt Q6UVK1); assay: flow cytometry, melanoma cell line 836 (BRAF V600E), PE-conjugated anti-mouse IgG
[15] = target: high molecular weight melanoma associated antigen (HMW-MAA), also known as CSPG4 (human) (UniProt Q6UVK1); assay: flow cytometry, melanoma cell line M233 (BRAF V600E), PE-conjugated anti-mouse IgG
[16] = target: high molecular weight melanoma associated antigen (HMW-MAA), also known as CSPG4 (human) (UniProt Q6UVK1); assay: flow cytometry, melanoma cell line WM1158 (BRAF V600E), PE-conjugated anti-mouse IgG

Sequence of high molecular weight melanoma associated antigen (HMW-MAA), also known as CSPG4 (human) (Q6UVK1 30-2322): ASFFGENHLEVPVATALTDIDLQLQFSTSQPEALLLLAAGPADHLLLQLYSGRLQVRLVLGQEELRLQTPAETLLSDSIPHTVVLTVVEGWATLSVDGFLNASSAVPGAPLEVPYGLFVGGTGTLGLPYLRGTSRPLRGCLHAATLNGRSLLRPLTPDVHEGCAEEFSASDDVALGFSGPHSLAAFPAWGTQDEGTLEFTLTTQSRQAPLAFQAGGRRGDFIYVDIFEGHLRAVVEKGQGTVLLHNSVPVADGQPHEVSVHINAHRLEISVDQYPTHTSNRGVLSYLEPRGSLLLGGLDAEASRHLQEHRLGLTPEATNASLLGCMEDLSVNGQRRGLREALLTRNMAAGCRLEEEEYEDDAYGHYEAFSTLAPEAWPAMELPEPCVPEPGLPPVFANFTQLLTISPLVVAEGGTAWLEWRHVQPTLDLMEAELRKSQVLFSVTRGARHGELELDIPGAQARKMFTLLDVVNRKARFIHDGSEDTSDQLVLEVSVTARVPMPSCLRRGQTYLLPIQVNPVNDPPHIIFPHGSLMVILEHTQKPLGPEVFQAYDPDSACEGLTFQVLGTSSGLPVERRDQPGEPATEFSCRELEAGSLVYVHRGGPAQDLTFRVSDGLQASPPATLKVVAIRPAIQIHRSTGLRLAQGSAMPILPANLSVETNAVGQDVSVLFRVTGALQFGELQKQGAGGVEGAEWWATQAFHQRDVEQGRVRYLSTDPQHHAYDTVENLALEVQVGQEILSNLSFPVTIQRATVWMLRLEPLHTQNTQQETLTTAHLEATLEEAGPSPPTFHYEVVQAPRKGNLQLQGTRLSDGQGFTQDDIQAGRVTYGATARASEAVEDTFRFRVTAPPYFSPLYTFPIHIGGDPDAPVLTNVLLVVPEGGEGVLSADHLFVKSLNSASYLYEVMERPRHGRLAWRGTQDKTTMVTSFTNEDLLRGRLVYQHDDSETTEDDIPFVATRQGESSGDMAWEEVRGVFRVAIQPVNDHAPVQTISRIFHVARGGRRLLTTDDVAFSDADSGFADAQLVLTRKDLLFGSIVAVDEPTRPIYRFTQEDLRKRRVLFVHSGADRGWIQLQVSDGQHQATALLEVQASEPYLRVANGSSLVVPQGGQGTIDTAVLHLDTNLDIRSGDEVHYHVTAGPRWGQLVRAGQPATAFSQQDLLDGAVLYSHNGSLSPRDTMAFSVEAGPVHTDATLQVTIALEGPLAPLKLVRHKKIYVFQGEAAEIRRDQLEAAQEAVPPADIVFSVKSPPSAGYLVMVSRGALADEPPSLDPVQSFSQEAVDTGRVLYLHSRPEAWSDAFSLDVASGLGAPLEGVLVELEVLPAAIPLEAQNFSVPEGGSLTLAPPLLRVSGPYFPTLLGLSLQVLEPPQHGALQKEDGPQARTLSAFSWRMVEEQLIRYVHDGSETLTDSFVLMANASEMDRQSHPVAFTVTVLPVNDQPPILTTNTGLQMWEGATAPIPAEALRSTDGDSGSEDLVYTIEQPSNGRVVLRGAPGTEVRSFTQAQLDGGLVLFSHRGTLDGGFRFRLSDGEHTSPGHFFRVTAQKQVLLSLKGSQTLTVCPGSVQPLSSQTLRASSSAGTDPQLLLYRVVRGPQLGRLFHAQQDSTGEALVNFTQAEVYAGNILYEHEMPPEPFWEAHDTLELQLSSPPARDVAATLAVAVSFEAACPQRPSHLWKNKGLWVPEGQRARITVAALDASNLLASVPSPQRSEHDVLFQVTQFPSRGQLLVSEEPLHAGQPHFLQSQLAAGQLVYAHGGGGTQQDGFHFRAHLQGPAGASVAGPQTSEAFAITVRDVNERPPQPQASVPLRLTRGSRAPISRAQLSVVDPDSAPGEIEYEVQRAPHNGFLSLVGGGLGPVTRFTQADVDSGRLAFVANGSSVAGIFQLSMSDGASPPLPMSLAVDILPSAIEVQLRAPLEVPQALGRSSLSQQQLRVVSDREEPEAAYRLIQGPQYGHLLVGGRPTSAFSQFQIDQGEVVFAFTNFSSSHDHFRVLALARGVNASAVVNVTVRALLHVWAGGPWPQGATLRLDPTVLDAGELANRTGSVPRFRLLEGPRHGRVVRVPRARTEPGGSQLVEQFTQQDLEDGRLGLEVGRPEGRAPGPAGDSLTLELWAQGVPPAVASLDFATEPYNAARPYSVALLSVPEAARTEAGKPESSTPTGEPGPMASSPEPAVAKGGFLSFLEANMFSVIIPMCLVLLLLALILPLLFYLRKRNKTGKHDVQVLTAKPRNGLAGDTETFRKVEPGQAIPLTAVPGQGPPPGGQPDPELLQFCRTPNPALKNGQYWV

Substance: HMW-MAA (CSPG4)-specific mouse mAb 225.28 (antibody)
- % of cells that express CSPG4 [1]: 93%
- MFI [1]: 55.8
- % of cells that express CSPG4 [2]: 99.6%
- MFI [2]: 275
- % of cells that express CSPG4 [3]: 78.4%
- MFI [3]: 20.2
- % of cells that express CSPG4 [4]: 99.9%
- MFI [4]: 117
- % of cells that express CSPG4 [5]: 99.8%
- MFI [5]: 572
- % of cells that express CSPG4 [6]: 99.9%
- MFI [6]: 890
- % of cells that express CSPG4 [7]: 99.9%
- MFI [7]: 917
- % of cells that express CSPG4 [8]: 80%
- MFI [8]: 437
- % of cells that express CSPG4 [9]: 99.7%
- MFI [9]: 581
- % of cells that express CSPG4 [10]: 99.8%
- MFI [10]: 493
- % of cells that express CSPG4 [11]: 99.9%
- MFI [11]: 280
- % of cells that express CSPG4 [12]: 99.9%
- MFI [12]: 607
- % of cells that express CSPG4 [13]: 88.2%
- MFI [13]: 130
- % of cells that express CSPG4 [14]: 99.4%
- MFI [14]: 1210
- % of cells that express CSPG4 [15]: 40.8%
- MFI [15]: 274
- % of cells that express CSPG4 [16]: 99.8%
- MFI [16]: 586
